From patent US20140057833A1 (TEMPLE UNIVERSITY OF THE COMMONWEALTH SYSTEM OF HIGHER …, published 2014)
Non-standard residues stand in square brackets, D forms with d. No end group written: not given here. βAla = NCCC(=O)O

B1: ADP 25-β-AlaNH2 (peptide)
peptide: NIPGLYYFAY[βAla]-NH2
modifications: N-terminus assumed
SMILES: CC[C@H](C)[C@H](NC(=O)[C@@H](N)CC(N)=O)C(=O)N1CCC[C@H]1C(=O)NCC(=O)N[C@@H](CC(C)C)C(=O)N[C@@H](Cc1ccc(O)cc1)C(=O)N[C@@H](Cc1ccc(O)cc1)C(=O)N[C@@H](Cc1ccccc1)C(=O)N[C@@H](C)C(=O)N[C@@H](Cc1ccc(O)cc1)C(=O)NCCC(N)=O

Target: T1, AdipoR1 (UniProt Q96A54 1-375, limits assumed)
T1 sequence (looked up): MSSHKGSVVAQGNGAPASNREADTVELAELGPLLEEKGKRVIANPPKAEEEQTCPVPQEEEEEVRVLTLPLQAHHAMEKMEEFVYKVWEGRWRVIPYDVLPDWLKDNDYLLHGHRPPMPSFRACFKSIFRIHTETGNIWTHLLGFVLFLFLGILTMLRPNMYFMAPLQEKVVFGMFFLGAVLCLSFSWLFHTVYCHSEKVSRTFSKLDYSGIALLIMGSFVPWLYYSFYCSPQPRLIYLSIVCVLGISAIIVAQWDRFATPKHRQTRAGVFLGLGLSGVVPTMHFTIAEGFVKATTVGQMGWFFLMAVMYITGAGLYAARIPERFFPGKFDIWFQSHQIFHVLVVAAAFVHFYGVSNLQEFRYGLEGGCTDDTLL
Test: cell-based or functional assay

Molecule	MCF-7 cell growth restriction at 50 ng/mL	MCF-7 cell proliferation inhibition at 50 ng/mL relative to untreated controls
globular adiponectin (gAd) (from UniProt Q15848 108-244) (ligand)	18%	–
B1	–	20%
